Measurements reported in the Immune Epitope Database (IEDB).
Each block holds one sequence with its values, some of them ahead of it.

What was measured:
HLA-B*46:01 [1] = assay: IEDB peptide-MHC binding, purified MHC/competitive/fluorescence; filed as Kd, often an IC50 or EC50 that approximates it; ≥ and ≤ were set here for values at or beyond the usual limits of such assays; details: source organism: Yellow fever virus
HLA-A*03:01 [2] = assay: as above
HLA-A*24:02 = assay: IEDB peptide-MHC binding, purified MHC/competitive/fluorescence; ≥ and ≤ were set here for values at or beyond the usual limits of such assays
HLA-A*11:01 = assay: IEDB peptide-MHC binding, purified MHC/direct/fluorescence; filed as Kd, often an IC50 or EC50 that approximates it; ≥ and ≤ were set here for values at or beyond the usual limits of such assays
HLA-A*02:01 [3] = assay: as above
HLA-A*03:01 [4] = assay: as above
HLA-A*01:01 = assay: as above
HLA-A*26:01 = assay: as above
HLA-B*58:01 = assay: as above
HLA-B*44:02 = assay: as above
HLA-A*24:03 = assay: as above
HLA-A*31:01 = assay: as above
HLA-B*40:01 = assay: as above
HLA-A*69:01 = assay: as above
HLA-B*15:01 = assay: as above
HLA-B*27:05 = assay: as above
HLA-B*07:02 = assay: as above
HLA-B*48:01 = assay: as above; details: source organism: Mammarenavirus lassaense
HLA-B*18:01 = assay: as above; details: source organism: Mammarenavirus lassaense
HLA-B*08:01 = assay: as above
HLA-B*57:01 = assay: as above; details: source organism: Mammarenavirus lassaense
HLA-B*46:01 [5] = assay: as above; details: source organism: Mammarenavirus lassaense
HLA-A*02:01 [6] = assay: IEDB peptide-MHC binding, purified MHC/competitive/fluorescence; ≥ and ≤ were set here for values at or beyond the usual limits of such assays
HLA-B*08:02 = assay: IEDB peptide-MHC binding, purified MHC/direct/fluorescence; filed as Kd, often an IC50 or EC50 that approximates it; ≥ and ≤ were set here for values at or beyond the usual limits of such assays; details: source organism: Influenza A virus (A/Taiwan/2/2006(H1N1))
[7] = source organism: Zaire ebolavirus
[8] = source organism: Giardia lamblia ATCC 50803
[9] = source organism: Mammarenavirus lassaense
[10] = source organism: Giardia intestinalis
[11] = source organism: Vaccinia virus WR
[12] = source organism: Sudan ebolavirus
[13] = source organism: Escherichia coli
[14] = source organism: Escherichia coli O157:H7

Sequence: WFYDNDNPY
Kd (HLA-B*46:01 [1]): 1.17 µM

Sequence: RTKSISSR
Kd (HLA-A*03:01 [2]; source organism: Influenza A virus (A/swine/Quebec/192/81(H1N1))): ≥ 20 µM

Sequence: QYQQLREAA
IC50 (HLA-A*24:02; [7]): ≥ 73.9 µM

Sequence: GMLSSLHTL
Kd (HLA-A*11:01; [8]): ≥ 20 µM | Kd (HLA-A*02:01 [3]; [8]): 0.0187 µM | Kd (HLA-A*03:01 [4]; [8]): ≥ 20 µM | Kd (HLA-A*01:01; [8]): ≥ 20 µM | Kd (HLA-A*26:01; [8]): ≥ 20 µM | Kd (HLA-B*58:01; [8]): 5.05 µM | Kd (HLA-B*44:02; [8]): ≥ 20 µM | Kd (HLA-A*24:03; [8]): 0.215 µM | Kd (HLA-A*31:01; [8]): ≥ 20 µM | Kd (HLA-B*40:01; [8]): ≥ 20 µM | Kd (HLA-A*69:01; [8]): ≥ 20 µM | Kd (HLA-B*15:01; [8]): 0.255 µM | Kd (HLA-B*27:05; [8]): 2.7 µM

Sequence: AVKYLEGHG
IC50 (HLA-A*24:02; [7]): ≥ 117 µM

Sequence: EYSKDSRNK
IC50 (HLA-A*24:02; source organism: Vaccinia virus): ≥ 284 µM

Sequence: ILNHKFCNL
Kd (HLA-B*07:02; [9]): ≥ 20 µM | Kd (HLA-B*48:01): ≥ 20 µM | Kd (HLA-B*18:01): ≥ 20 µM | Kd (HLA-B*08:01; [9]): 0.142 µM | Kd (HLA-A*03:01 [4]; [9]): ≥ 20 µM | Kd (HLA-B*57:01): ≥ 20 µM | Kd (HLA-A*01:01; [9]): ≥ 20 µM | Kd (HLA-B*58:01; [9]): ≥ 20 µM | Kd (HLA-B*44:02; [9]): ≥ 20 µM | Kd (HLA-B*40:01; [9]): ≥ 20 µM | Kd (HLA-B*27:05; [9]): ≥ 20 µM | Kd (HLA-B*46:01 [5]): ≥ 20 µM

Sequence: RVSSFIRGKK
Kd (HLA-A*03:01 [2]; source organism: Influenza A virus (A/swine/Italy/2/1979(H1N1))): 0.0025 µM

Sequence: GPRRAAWRI
Kd (HLA-B*07:02; [8]): 0.0617 µM | Kd (HLA-A*11:01; [10]): ≥ 20 µM | Kd (HLA-A*02:01 [3]; [10]): ≥ 20 µM | Kd (HLA-B*08:01; [10]): ≥ 20 µM | Kd (HLA-A*03:01 [4]; [10]): ≥ 20 µM | Kd (HLA-A*01:01; [10]): ≥ 20 µM | Kd (HLA-A*26:01; [10]): ≥ 20 µM | Kd (HLA-B*58:01; [10]): ≥ 20 µM | Kd (HLA-B*44:02; [10]): ≥ 20 µM | Kd (HLA-A*24:03; [8]): ≥ 20 µM | Kd (HLA-A*31:01; [10]): ≥ 20 µM | Kd (HLA-B*40:01; [10]): ≥ 20 µM | Kd (HLA-A*69:01; [10]): ≥ 20 µM | Kd (HLA-B*15:01; [10]): ≥ 20 µM | Kd (HLA-B*27:05; [10]): ≥ 20 µM

Sequence: EILNTIQFM
IC50 (HLA-A*24:02; [11]): ≥ 111 µM | IC50 (HLA-A*02:01 [6]; [11]): 7.58 µM

Sequence: SGSTSPRML
IC50 (HLA-A*24:02; [7]): ≥ 188 µM

Sequence: ADIGEWAFW
IC50 (HLA-A*24:02; [12]): 19.4 µM

Sequence: AKCIEYVTL
IC50 (HLA-A*24:02; source organism: Vaccinia virus Copenhagen): ≥ 172 µM

Kd (HLA-B*07:02; [13]): 8.28 µM | Kd (HLA-A*11:01; [14]): ≥ 20 µM | Kd (HLA-A*02:01 [3]; [13]): 2.05 µM | Kd (HLA-B*08:01; [14]): ≥ 20 µM | Kd (HLA-A*03:01 [4]; [14]): ≥ 20 µM | Kd (HLA-A*01:01; [14]): ≥ 20 µM | Kd (HLA-A*26:01; [14]): ≥ 20 µM | Kd (HLA-B*58:01; [14]): ≥ 20 µM | Kd (HLA-B*44:02; [14]): ≥ 20 µM | Kd (HLA-A*24:03; [13]): ≥ 20 µM | Kd (HLA-A*31:01; [14]): ≥ 20 µM | Kd (HLA-B*40:01; [14]): ≥ 20 µM | Kd (HLA-A*69:01; [14]): ≥ 20 µM | Kd (HLA-B*15:01; [13]): 0.919 µM | Kd (HLA-B*27:05; [14]): ≥ 20 µM
Sequence: GLKRGGVLL

Sequence: LMHNQNALV
IC50 (HLA-A*24:02; [12]): ≥ 87 µM | IC50 (HLA-A*02:01 [6]; [12]): 1.16 µM

Sequence: MTATLEDDR
IC50 (HLA-A*24:02; source organism: Variola virus): 14.6 µM

Sequence: IASMRRNYF
Kd (HLA-B*08:01; source organism: Influenza A virus (A/camel/Mongolia/1982(H1N1))): 0.401 µM | Kd (HLA-B*08:02): 2.23 µM

Sequence: SNSVAQARF
IC50 (HLA-A*24:02; [7]): ≥ 83.6 µM

Sequence: RMKWMMAMR
Kd (HLA-A*03:01 [2]; source organism: Influenza A virus (A/chicken/Fujian/25/00(H9N2))): 0.044 µM
